Experimental findings from patent US20130302353A1 (published 2013) are described below.

The target in test [1] is T1, VSREGQGRQ (SEQ ID NO:38) motif (human).
T1 construct: the peptides on the cards were longer and mostly CLIPS-constrained; also called core region EGQ
T1 peptide: VSREGQGRQ
Description: Pepscan ELISA on linear and CLIPS peptides. On the procedure: (§1) The synthetic linear and CLIPS peptides were synthesized and screened using credit-card format mini PEPSCAN cards (455-well plate with 3 ul wells) as described by Slootstra et al. (Slootstra et al., 1996, Mol. Diversity. 1, 87-96) and Timmerman et al. (Timmerman et al., 2007, J. Mol. Recognit. 20, 283-299). The binding of antibodies (hAPRIL.01A and hAPRIL.03A) to each peptide was tested in a PEPSCAN-based enzyme-linked immuno assay (ELISA). The 455-well creditcard-format polypropylene cards, containing the covalently linked peptides, were incubated with sample (for example 1 ug/ml antibody diluted in a PBS solution containing 5% horse serum (vol/vol) and 5% ovalbumin (weight/vol)) and 1% Tween 80 (4° C., overnight). After washing the peptides were incubated with an anti-antibody peroxidase (dilution 1/1000, for example rabbit anti-mouse peroxidase, Southern Biotech) (1 hour, 25° C.), and subsequently, after washing the peroxidase substrate 2,2′-azino-di-3-ethylbenzthiazoline sulfonate (ABTS) and […] 3% H2O2 were added. After 1 hour the color development was measured. The color development of the ELISA was quantified with a CCD-camera and an image processing system. […]
(§2) Each antibody was tested on all 4225 peptides and their binding values were ranked. […] For hAPRIL.01A it was determined that it binds to […] […]
For orientation: ELISA stands for enzyme-linked immunosorbent assay.

Test [2] concerns the target T2, IRSMPSHPDRA (SEQ ID NO:33) (human).
T2 construct: the peptides on the cards were longer and mostly CLIPS-constrained
T2 peptide: IRSMPSHPDRA
Description: Pepscan ELISA on linear and CLIPS peptides. On the procedure:
as §1, §2

Test [3] has as its target T3, FLAG-hAPRIL captured by BCMA-Fc (human, UniProt O75888 110-250; Q02223 1-54, limits assumed).
T3 construct: also called APRIL-BCMA complex; receptor-ligand complex; not shown: FLAG tag; Fc of human IgG1
T3 sequence (looked up) 1: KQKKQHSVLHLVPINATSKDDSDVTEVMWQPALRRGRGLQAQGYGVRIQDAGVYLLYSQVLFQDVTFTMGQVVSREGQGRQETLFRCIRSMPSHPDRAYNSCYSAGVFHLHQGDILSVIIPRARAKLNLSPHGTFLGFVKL
T3 sequence (looked up) 2: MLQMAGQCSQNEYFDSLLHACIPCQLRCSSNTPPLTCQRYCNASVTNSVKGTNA
Description: ELISA, FLAG-hAPRIL captured by coated BCMA-Fc. On the procedure: Protein-based ELISA experiments using purified hAPRIL.01A and hAPRIL.03A antibodies were performed to determine apparent binding affinities (reported as EC₅₀ values). Binding was compared to mouse anti-hAPRIL IgG1 Aprily-5 (Alexis). Maxisorp 96-well immunoplates (Nunc) were coated with either rabbit anti-FLAG polyclonal antibody (Sigma) or BCMA-Fc (R&D Systems) at 50 ng/well in PBS overnight at 4° C. and blocked with 10% Goat serum/PBST for 1 hour at RT. Plates were washed with PBST 3 times and incubated with supernatant (1:4 in PBS) containing FLAG-hAPRIL for 1 hour at RT. Plates were again washed with PBST 3 times and incubated with hAPRIL.01A, hAPRIL.03A, and Aprily-5 antibodies (10 μg/ml high test with 10-fold dilutions in triplicates) for 1 h at RT. After three washes with PBST, bound antibodies were detected with goat anti-mouse IgG-HRP (1:2,000) (Southern Biotechnology) for 1 hour at RT. Plate was washed three times with PBST, and APRIL-reactivity was visualized with OptiEIA TMB substrate (Becton Dickinson). The concentration for half-maximal binding is reported as a measure of relative binding affinity. When FLAG-hAPRIL was captured by the anti-FLAG antibody (FIG. 2A), EC₅₀ values for hAPRIL.01A, hAPRIL.03A and Aprily-5 were calculated as 2.2, 1.4, and 1.7 nM, respectively. […] In contrast, binding of hAPRIL.03A to the APRIL-BCMA complex was observed.

B1: hAPRIL.03A (antibody, IgG1, V domains shown)
VH: QVTLKESGPGILQPSQTLSLTCSFSGFSLSTYGIGVGWIRQPSGKGLEWLAHIWWNDNKYYNTALKSRLTISKDTSNNQVFLKIASVDTADTATYYCARIAGGNYDYAMDHWGQGTSVTVSS
VL: QIVLTQSPAIMSTSPGEKVTLTCSASSSVSSTYLYWYQQKPGSSPKLWIYSTSNLASGVPARFSGSGSGTSYSLTISSMEAEDAASYFCHQWSSYPPTFGAGTKLELK
notes: Mouse antibody from a hybridoma; also called hAPRIL.03A hybridoma supernatant; purified hAPRIL.03A
For B1, in test [1], the binding result was “binds”.

B2: hAPRIL.01A (antibody, IgG1, V domains shown)
VH: EVQLQQSGPELVKPGASVKMSCKASGYTFTSYVMHWVKQKPGQGLEWIGYINPYNDAPKYNEKFKGKATVTSDKSSGTAYMELSSLTSEDSAVYYCARGLGYALYYAMDYWGQGTSVTVSS
VL: DIVMTQSQKFKSTSVGDRVSVTCKASQNVGNNVAWYQQKAGQSPKALISSASNRDSGVPDRFTGSGSGTDFTLTISNVQSEDLADYFCQQYNIYPFTFGSGTELEIK
notes: Mouse antibody from a hybridoma; also called hAPRIL.01A hybridoma supernatant; purified hAPRIL.01A
As to B2, the binding result in test [2] is given as “binds”; in test [3], “no binding (tested: 10 µg/ml high test)”.
